The record followed here is the supplement of paper PMC10567573.

The labels stand for the following.
B1: SMOC2 (parent)
chain: PALETQPQGDEEDIASRYPTLWTE
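Also: lentivirally expressed fusions sorted by FACS into six bins by GFP to DsRed ratio, PSI derived from sequencing read proportions per bin multiplied by bin number.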

This series covers variants of B1. Description: protein stability index of a GFP-peptide fusion (GPS, HEK-293T) (PSI 1-6); higher = more stable. Particulars: c terminus: a fixed tail appended.
Consider PALETQPQGTEEDIASRYPTLWTE [D10T], for which the protein stability index came to 4.14.
For the variant PALETQPQGHEEDIASRYPTLWTE [D10H], the protein stability index came to 3.56.
The figure for PALETQPQGYEEDIASRYPTLWTE [D10Y] is 3.51; for PALETQPQGVEEDIASRYPTLWTE [D10V] it is 3.69.
The value for PALETQPQGREEDIASRYPTLWTE [D10R] was 3.86; that for PALETQPQGCEEDIASRYPTLWTE [D10C] was 3.36; that for PALETQPQGEEEDIASRYPTLWTE [D10E] was 4.16.
The value for PALETQPQGNEEDIASRYPTLWTE [D10N] was 4.49.
PALETQPQGPEEDIASRYPTLWTE [D10P]: the protein stability index amounted to 4.6.
The value for PALETQPQGIEEDIASRYPTLWTE [D10I] was 3.68; that for PALETQPQGMEEDIASRYPTLWTE [D10M] was 3.05; that for PALETQPQGAEEDIASRYPTLWTE [D10A] was 4.36.
On to PALETQPQGFEEDIASRYPTLWTE [D10F], for which the protein stability index turned out to be 3.39.
The value for PALETQPQGQEEDIASRYPTLWTE [D10Q] was 4.41.
For the variant PALETQPQGKEEDIASRYPTLWTE [D10K], the protein stability index was found to be 3.53.
The figure for PALETQPQGGEEDIASRYPTLWTE [D10G] is 3.68; for PALETQPQGWEEDIASRYPTLWTE [D10W] it is 3.98; for PALETQPQGLEEDIASRYPTLWTE [D10L] it is 4.33.
The value for PALETQPQGSEEDIASRYPTLWTE [D10S] was 4.44; that for PALETQPQSDEEDIASRYPTLWTE [G9S] was 5.09; that for PALETQPQRDEEDIASRYPTLWTE [G9R] was 4.34.
As to PALETQPQTDEEDIASRYPTLWTE [G9T], the protein stability index came out at 4.97.
The figure for PALETQPQDDEEDIASRYPTLWTE [G9D] is 4.63.
The value for PALETQPQADEEDIASRYPTLWTE [G9A] was 4.92; that for PALETQPQMDEEDIASRYPTLWTE [G9M] was 4.76.
As for PALETQPQWDEEDIASRYPTLWTE [G9W], the protein stability index was 4.62.
The figure for PALETQPQHDEEDIASRYPTLWTE [G9H] is 4.71; for PALETQPQYDEEDIASRYPTLWTE [G9Y] it is 4.74; for PALETQPQCDEEDIASRYPTLWTE [G9C] it is 5.16.
Consider PALETQPQPDEEDIASRYPTLWTE [G9P], for which the protein stability index is 4.88.
The figure for PALETQPQNDEEDIASRYPTLWTE [G9N] is 4.78; for PALETQPQLDEEDIASRYPTLWTE [G9L] it is 4.84; for PALETQPQFDEEDIASRYPTLWTE [G9F] it is 4.89.
The value for PALETQPQVDEEDIASRYPTLWTE [G9V] was 4.87; that for PALETQPQEDEEDIASRYPTLWTE [G9E] was 5.22.
The value for PALETQPQIDEEDIASRYPTLWTE [G9I] was 4.08; that for PALETQPQKDEEDIASRYPTLWTE [G9K] was 4.55; that for PALETQPQGDEEPIASRYPTLWTE [D13P] was 3.63.
With PALETQPQGDEEEIASRYPTLWTE [D13E], the protein stability index came to 3.76.
The figure for PALETQPQGDEERIASRYPTLWTE [D13R] is 4.14; for PALETQPQGDEELIASRYPTLWTE [D13L] it is 3.84; for PALETQPQGDEEWIASRYPTLWTE [D13W] it is 4.68.
With PALETQPQGDEEYIASRYPTLWTE [D13Y], the protein stability index stood at 3.59.
The figure for PALETQPQGDEEVIASRYPTLWTE [D13V] is 3.93; for PALETQPQGDEESIASRYPTLWTE [D13S] it is 3.97.
The figure for PALETQPQGDEENIASRYPTLWTE [D13N] is 4.23; for PALETQPQGDEEKIASRYPTLWTE [D13K] it is 2.67; for PALETQPQGDEEAIASRYPTLWTE [D13A] it is 4.35.
The value for PALETQPQGDEEHIASRYPTLWTE [D13H] was 3.71.
Consider PALETQPQGDEEMIASRYPTLWTE [D13M], for which the protein stability index is 4.09.
On to PALETQPQGDEEFIASRYPTLWTE [D13F], for which the protein stability index came to 4.14.
The value for PALETQPQGDEEIIASRYPTLWTE [D13I] was 3.65; that for PALETQPQGDEEQIASRYPTLWTE [D13Q] was 4.21.
The value for PALETQPQGDEEGIASRYPTLWTE [D13G] was 3.85; that for PALETQPQGDEECIASRYPTLWTE [D13C] was 3.9; that for PALETQPQGDEETIASRYPTLWTE [D13T] was 4.23.
On to PALETQPQGDEEDIASAYPTLWTE [R17A], for which the protein stability index came to 4.81.
The value for PALETQPQGDEEDIASHYPTLWTE [R17H] was 4.38; that for PALETQPQGDEEDIASCYPTLWTE [R17C] was 3.2.
Consider PALETQPQGDEEDIASGYPTLWTE [R17G], for which the protein stability index worked out at 4.71.
The value for PALETQPQGDEEDIASEYPTLWTE [R17E] was 4.5.
The value for PALETQPQGDEEDIASMYPTLWTE [R17M] was 4.94; that for PALETQPQGDEEDIASFYPTLWTE [R17F] was 3.82; that for PALETQPQGDEEDIASLYPTLWTE [R17L] was 4.72.
The figure for PALETQPQGDEEDIASIYPTLWTE [R17I] is 4.73; for PALETQPQGDEEDIASDYPTLWTE [R17D] it is 4.94; for PALETQPQGDEEDIASKYPTLWTE [R17K] it is 4.35.
PALETQPQGDEEDIASNYPTLWTE [R17N]: the protein stability index amounted to 4.23.
The value for PALETQMQGDEEDIASRYPTLWTE [P7M] was 4.62; that for PALETQQQGDEEDIASRYPTLWTE [P7Q] was 5.02.
The value for PALETQSQGDEEDIASRYPTLWTE [P7S] was 4.68.
The value for PALETQVQGDEEDIASRYPTLWTE [P7V] was 4.06; that for PALETQWQGDEEDIASRYPTLWTE [P7W] was 4.02.
For the variant PALETQRQGDEEDIASRYPTLWTE [P7R], the protein stability index worked out at 3.81.
The figure for PALETQTQGDEEDIASRYPTLWTE [P7T] is 4.54; for PALETQNQGDEEDIASRYPTLWTE [P7N] it is 4.48; for PALETQYQGDEEDIASRYPTLWTE [P7Y] it is 4.28.
The figure for PALETQPQGDEEDMASRYPTLWTE [I14M] is 3.95; for PALETQPQGDEEDCASRYPTLWTE [I14C] it is 4.14; for PALETQPQGDEEDAASRYPTLWTE [I14A] it is 4.79.
For PALETQPQGDEEDQASRYPTLWTE [I14Q], the protein stability index worked out at 4.4.
Turning to PALETQPQGDEEDVASRYPTLWTE [I14V], the protein stability index stood at 4.19.
The figure for PALETQPQGDEEDEASRYPTLWTE [I14E] is 4.79; for PALETQPQGDEEDSASRYPTLWTE [I14S] it is 4.64.
Consider PALETQPQGDEEDYASRYPTLWTE [I14Y], for which the protein stability index came to 4.39.
The figure for PALETQPQGDEEDGASRYPTLWTE [I14G] is 4.53.
The value for PALETQPQGDEEDKASRYPTLWTE [I14K] was 3.96; that for PALETQPQGDEEDWASRYPTLWTE [I14W] was 3.97.
The figure for PALETQPQGDEEDNASRYPTLWTE [I14N] is 5.01; for PALETQPQGDEEDPASRYPTLWTE [I14P] it is 4.99.
As to PALETQPQGDEEDHASRYPTLWTE [I14H], the protein stability index is 4.65.
The value for PALETQPQGDEEDTASRYPTLWTE [I14T] was 5.06.
For PALETQPQGDEEDFASRYPTLWTE [I14F], the protein stability index is 4.42.
The value for PALETQPQGDEEDDASRYPTLWTE [I14D] was 5.77.
